Reference: patent publication US20200165335A1 (Seagen, published 2020)

T1: human LIV-1 (human, UniProt Q13433 29-755)
T1 construct: also called hLIV-1; Q13433
T1 sequence: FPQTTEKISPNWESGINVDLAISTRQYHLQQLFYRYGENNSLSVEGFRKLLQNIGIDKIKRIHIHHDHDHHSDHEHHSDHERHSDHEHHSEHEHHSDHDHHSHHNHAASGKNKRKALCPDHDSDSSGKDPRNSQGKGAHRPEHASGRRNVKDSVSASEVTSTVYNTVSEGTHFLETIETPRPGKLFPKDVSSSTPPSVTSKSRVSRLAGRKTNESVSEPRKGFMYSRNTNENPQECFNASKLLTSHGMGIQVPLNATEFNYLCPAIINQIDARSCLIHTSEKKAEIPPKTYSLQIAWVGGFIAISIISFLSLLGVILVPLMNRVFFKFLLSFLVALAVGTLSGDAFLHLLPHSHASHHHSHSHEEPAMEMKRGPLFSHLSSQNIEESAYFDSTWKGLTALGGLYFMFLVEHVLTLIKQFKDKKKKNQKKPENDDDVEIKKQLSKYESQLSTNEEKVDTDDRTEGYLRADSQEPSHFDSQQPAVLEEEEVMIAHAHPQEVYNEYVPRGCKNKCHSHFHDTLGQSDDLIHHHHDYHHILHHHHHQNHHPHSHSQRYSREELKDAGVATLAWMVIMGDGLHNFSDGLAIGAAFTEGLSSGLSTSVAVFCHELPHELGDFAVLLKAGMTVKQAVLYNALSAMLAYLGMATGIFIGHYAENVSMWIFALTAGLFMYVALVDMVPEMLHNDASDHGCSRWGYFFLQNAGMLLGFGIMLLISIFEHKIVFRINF


Biological target: T1, human LIV-1
Assay: competition flow cytometry, CHO cells expressing human LIV-1, vs 5 nM AF647-labelled BR2-14a
Method: 1×10⁵ CHO cells expressing recombinant human LIV-1 in PBS/BSA were aliquoted into each well of a 96-well v-bottom plates on ice. […] Cells were pelleted and washed 3 times with PBS/BSA. The cells were pelleted and resuspended in 125 μL of PBS/BSA. Fluorescence was analyzed by flow cytometry, using percent of saturated fluorescent signal to determine percent labeled murine LIV-1 mAb bound and to subsequently extrapolate the EC50 by fitting the data to a sigmoidal dose-response curve with variable slope.

Row | Binder | EC50 | binding result
1 | humanized BR2-14a antibody HALA (antibody, V domains shown, also called hLIV-1 HA + hLIV-1 LA) VH: QVQLVQSGAEVKKPGASVKVSCKASGYTFTDYYMHWVRQAPGQGLEWMGWIDPENGDTEYAPTFQGRVTMTRDTSISTAYMELSRLRSDDTAVYYCARHDAHYGTWFAYWGQGTLVTVSS VL: DVVMTQSPLSLPVTLGQPASISCRSSQSIIRNDGNTYLEWFQQRPGQSPRRLIYRVSNRFSGVPDRFSGSGSGTDFTLKISRVEAEDVGVYYCFQGSHVPYTFGGGTKVEIKR |  | no binding (tested: 0.038 nM to 600 nM tested)
2 | humanized BR2-14a antibody HBLD (antibody, V domains shown, also called hLIV-1 HB + hLIV-1 LD) VH: QVQLVQSGAEVKKPGASVKVSCKASGYTIEDYYMHWVRQAPGQGLEWMGWIDPENGDTEYAPTFQGRVTMTRDTSINTAYMELSRLRSDDTAVYYCARHDAHYGTWFAYWGQGTLVTVSS VL: DVVMTQSPLSLPVTLGQPASISCRSSQSIIRNDGNTYLEWFQQRPGQSPKRLIYRVSNRFSGVPDRFSGSGSGTDFTLKISRVEAEDVGVYYCFQGSHVPYTFGGGTKVEIKR | 17.4 µg/mL | 
3 | humanized BR2-14a antibody HBLF (antibody, V domains shown, also called hLIV-1 HB + hLIV-1 LF) VH: QVQLVQSGAEVKKPGASVKVSCKASGYTIEDYYMHWVRQAPGQGLEWMGWIDPENGDTEYAPTFQGRVTMTRDTSINTAYMELSRLRSDDTAVYYCARHDAHYGTWFAYWGQGTLVTVSS VL: DVVMTQSPLSLPVTLGQPASISCRSSQSIIRNDGNTYLEWYLQKPGQSPKLLIYRVSNRFSGVPDRFSGSGSGTDFTLKISRVEAEDVGVYYCFQGSHVPYTFGGGTKVEIKR | 0.7 µg/mL | 
4 | humanized BR2-14a antibody HALF (antibody, V domains shown, also called hLIV-1 HA + hLIV-1 LF) VH: QVQLVQSGAEVKKPGASVKVSCKASGYTFTDYYMHWVRQAPGQGLEWMGWIDPENGDTEYAPTFQGRVTMTRDTSISTAYMELSRLRSDDTAVYYCARHDAHYGTWFAYWGQGTLVTVSS VL: DVVMTQSPLSLPVTLGQPASISCRSSQSIIRNDGNTYLEWYLQKPGQSPKLLIYRVSNRFSGVPDRFSGSGSGTDFTLKISRVEAEDVGVYYCFQGSHVPYTFGGGTKVEIKR | 8.8 µg/mL | 
5 | humanized BR2-14a antibody HBLA (antibody, V domains shown, also called hLIV-1 HB + hLIV-1 LA) VH: QVQLVQSGAEVKKPGASVKVSCKASGYTIEDYYMHWVRQAPGQGLEWMGWIDPENGDTEYAPTFQGRVTMTRDTSINTAYMELSRLRSDDTAVYYCARHDAHYGTWFAYWGQGTLVTVSS VL: DVVMTQSPLSLPVTLGQPASISCRSSQSIIRNDGNTYLEWFQQRPGQSPRRLIYRVSNRFSGVPDRFSGSGSGTDFTLKISRVEAEDVGVYYCFQGSHVPYTFGGGTKVEIKR | 19.9 µg/mL | 
6 | humanized BR2-14a antibody HBLC (antibody, V domains shown, also called hLIV-1 HB + hLIV-1 LC) VH: QVQLVQSGAEVKKPGASVKVSCKASGYTIEDYYMHWVRQAPGQGLEWMGWIDPENGDTEYAPTFQGRVTMTRDTSINTAYMELSRLRSDDTAVYYCARHDAHYGTWFAYWGQGTLVTVSS VL: DVVMTQSPLSLPVTLGQPASISCRSSQSIIRNDGNTYLEWFLQRPGQSPRRLIYRVSNRFSGVPDRFSGSGSGTDFTLKISRVEAEDVGVYYCFQGSHVPYTFGGGTKVEIKR | 44 µg/mL | 
7 | humanized BR2-14a antibody HCLB (antibody, V domains shown, also called hLIV-1 HC + hLIV-1 LB) VH: QVQLVQSGAEVKKPGASVKVSCKASGYTFTDYYMHWVRQAPGQGLEWMGWIDPENGDTEYAPTFQGKATMTADTSISTAYMELSRLRSDDTAVYYCARHDAHYGTWFAYWGQGTLVTVSS VL: DVVMTQSPLSLPVTLGQPASISCRSSQSIIRNDGNTYLEWYQQRPGQSPRRLIYRVSNRFSGVPDRFSGSGSGTDFTLKISRVEAEDVGVYYCFQGSHVPYTFGGGTKVEIKR | 1.8 µg/mL | 
8 | humanized BR2-14a antibody HALC (antibody, V domains shown, also called hLIV-1 HA + hLIV-1 LC) VH: QVQLVQSGAEVKKPGASVKVSCKASGYTFTDYYMHWVRQAPGQGLEWMGWIDPENGDTEYAPTFQGRVTMTRDTSISTAYMELSRLRSDDTAVYYCARHDAHYGTWFAYWGQGTLVTVSS VL: DVVMTQSPLSLPVTLGQPASISCRSSQSIIRNDGNTYLEWFLQRPGQSPRRLIYRVSNRFSGVPDRFSGSGSGTDFTLKISRVEAEDVGVYYCFQGSHVPYTFGGGTKVEIKR | 25.5 µg/mL | 
9 | humanized BR2-14a antibody HALE (antibody, V domains shown, also called hLIV-1 HA + hLIV-1 LE) VH: QVQLVQSGAEVKKPGASVKVSCKASGYTFTDYYMHWVRQAPGQGLEWMGWIDPENGDTEYAPTFQGRVTMTRDTSISTAYMELSRLRSDDTAVYYCARHDAHYGTWFAYWGQGTLVTVSS VL: DVVMTQSPLSLPVTLGQPASISCRSSQSIIRNDGNTYLEWFQQRPGQSPRLLIYRVSNRFSGVPDRFSGSGSGTDFTLKISRVEAEDVGVYYCFQGSHVPYTFGGGTKVEIKR |  | no binding (tested: 0.038 nM to 600 nM tested)
10 | humanized BR2-14a antibody HALD (antibody, V domains shown, also called hLIV-1 HA + hLIV-1 LD) VH: QVQLVQSGAEVKKPGASVKVSCKASGYTFTDYYMHWVRQAPGQGLEWMGWIDPENGDTEYAPTFQGRVTMTRDTSISTAYMELSRLRSDDTAVYYCARHDAHYGTWFAYWGQGTLVTVSS VL: DVVMTQSPLSLPVTLGQPASISCRSSQSIIRNDGNTYLEWFQQRPGQSPKRLIYRVSNRFSGVPDRFSGSGSGTDFTLKISRVEAEDVGVYYCFQGSHVPYTFGGGTKVEIKR | 4.9 µg/mL | 
11 | humanized BR2-14a antibody HALB (antibody, V domains shown, also called hLIV-1 HA + hLIV-1 LB) VH: QVQLVQSGAEVKKPGASVKVSCKASGYTFTDYYMHWVRQAPGQGLEWMGWIDPENGDTEYAPTFQGRVTMTRDTSISTAYMELSRLRSDDTAVYYCARHDAHYGTWFAYWGQGTLVTVSS VL: DVVMTQSPLSLPVTLGQPASISCRSSQSIIRNDGNTYLEWYQQRPGQSPRRLIYRVSNRFSGVPDRFSGSGSGTDFTLKISRVEAEDVGVYYCFQGSHVPYTFGGGTKVEIKR | 37.8 µg/mL | 

Second part, led by results:

Row | EC50 | Binder | binding result
12 | 12.5 µg/mL | humanized BR2-14a antibody HELA (antibody, V domains shown, also called hLIV-1 HE + hLIV-1 LA) VH: QVQLVQSGAEVKKPGASVKVSCKASGFNIEDYYMHWVRQAPGQGLEWIGWIDPENGDTEYAPTFQGKATMTADTSINTAYMELSRLRSDDTAVYYCNVHDAHYGTWFAYWGQGTLVTVSS VL: DVVMTQSPLSLPVTLGQPASISCRSSQSIIRNDGNTYLEWFQQRPGQSPRRLIYRVSNRFSGVPDRFSGSGSGTDFTLKISRVEAEDVGVYYCFQGSHVPYTFGGGTKVEIKR | 
13 | 1.4 µg/mL | humanized BR2-14a antibody HDLF (antibody, V domains shown, also called hLIV-1 HD + hLIV-1 LF) VH: QVQLVQSGAEVKKPGASVKVSCKASGFTFTDYYMHWVRQAPGQGLEWMGWIDPENGDTEYAPTFQGRVTMTRDTSISTAYMELSRLRSDDTAVYYCNVHDAHYGTWFAYWGQGTLVTVSS VL: DVVMTQSPLSLPVTLGQPASISCRSSQSIIRNDGNTYLEWYLQKPGQSPKLLIYRVSNRFSGVPDRFSGSGSGTDFTLKISRVEAEDVGVYYCFQGSHVPYTFGGGTKVEIKR | 
14 | 67.9 µg/mL | humanized BR2-14a antibody HDLD (antibody, V domains shown, also called hLIV-1 HD + hLIV-1 LD) VH: QVQLVQSGAEVKKPGASVKVSCKASGFTFTDYYMHWVRQAPGQGLEWMGWIDPENGDTEYAPTFQGRVTMTRDTSISTAYMELSRLRSDDTAVYYCNVHDAHYGTWFAYWGQGTLVTVSS VL: DVVMTQSPLSLPVTLGQPASISCRSSQSIIRNDGNTYLEWFQQRPGQSPKRLIYRVSNRFSGVPDRFSGSGSGTDFTLKISRVEAEDVGVYYCFQGSHVPYTFGGGTKVEIKR | 
15 | 173 µg/mL | humanized BR2-14a antibody HELB (antibody, V domains shown, also called hLIV-1 HE + hLIV-1 LB) VH: QVQLVQSGAEVKKPGASVKVSCKASGFNIEDYYMHWVRQAPGQGLEWIGWIDPENGDTEYAPTFQGKATMTADTSINTAYMELSRLRSDDTAVYYCNVHDAHYGTWFAYWGQGTLVTVSS VL: DVVMTQSPLSLPVTLGQPASISCRSSQSIIRNDGNTYLEWYQQRPGQSPRRLIYRVSNRFSGVPDRFSGSGSGTDFTLKISRVEAEDVGVYYCFQGSHVPYTFGGGTKVEIKR | 
16 | 66.6 µg/mL | humanized BR2-14a antibody HCLD (antibody, V domains shown, also called hLIV-1 HC + hLIV-1 LD) VH: QVQLVQSGAEVKKPGASVKVSCKASGYTFTDYYMHWVRQAPGQGLEWMGWIDPENGDTEYAPTFQGKATMTADTSISTAYMELSRLRSDDTAVYYCARHDAHYGTWFAYWGQGTLVTVSS VL: DVVMTQSPLSLPVTLGQPASISCRSSQSIIRNDGNTYLEWFQQRPGQSPKRLIYRVSNRFSGVPDRFSGSGSGTDFTLKISRVEAEDVGVYYCFQGSHVPYTFGGGTKVEIKR | 
17 | 2.3 µg/mL | humanized BR2-14a antibody HDLB (antibody, V domains shown, also called hLIV-1 HD + hLIV-1 LB) VH: QVQLVQSGAEVKKPGASVKVSCKASGFTFTDYYMHWVRQAPGQGLEWMGWIDPENGDTEYAPTFQGRVTMTRDTSISTAYMELSRLRSDDTAVYYCNVHDAHYGTWFAYWGQGTLVTVSS VL: DVVMTQSPLSLPVTLGQPASISCRSSQSIIRNDGNTYLEWYQQRPGQSPRRLIYRVSNRFSGVPDRFSGSGSGTDFTLKISRVEAEDVGVYYCFQGSHVPYTFGGGTKVEIKR | 
18 | 1.3 µg/mL | humanized BR2-14a antibody HCLF (antibody, V domains shown, also called hLIV-1 HC + hLIV-1 LF) VH: QVQLVQSGAEVKKPGASVKVSCKASGYTFTDYYMHWVRQAPGQGLEWMGWIDPENGDTEYAPTFQGKATMTADTSISTAYMELSRLRSDDTAVYYCARHDAHYGTWFAYWGQGTLVTVSS VL: DVVMTQSPLSLPVTLGQPASISCRSSQSIIRNDGNTYLEWYLQKPGQSPKLLIYRVSNRFSGVPDRFSGSGSGTDFTLKISRVEAEDVGVYYCFQGSHVPYTFGGGTKVEIKR | 
